Test results from patent US20120178691A1, “FACTOR VIII COMPOSITIONS AND METHODS OF MAKING AND USING SAME” (Amunix Operating Inc., priority 2010, published 2012).

What was measured:
[1] = test system: activation of factor X; experiment: Chromogenix Coamatic Factor VIII activity assay; type: biochemical
Text: BDD FVIII and FVIII-XTEN fusion protein constructs pBC0114, pBC0135, pBC0136, pBC0137, pBC0145, pBC0146, and pBC0149, in various configurations, including XTEN_AE288 and AG288 inserted at the C-terminus of the FVIII BDD sequence and FVIII-XTEN fusion proteins with AE42 and AE288 inserted after residue 745 (or residue 743) and before residue 1640 (or residue 1638) of the B-domain […], were expressed in transiently transfected Freestyle 293 cells, as described above, and tested for procoagulant activity. […] The assay was performed according to manufacturer's instructions using the end-point method, which was measured spectrophotometrically at OD405 nm A standard curve was created using purified FVIII protein at concentrations of 250, 200, 150, 100, 75, 50, 37.5, 25, 12.5, 6.25, 3.125 and 1.56 mU/ml. […] The cell culture media of the FVIII-XTEN constructs were obtained as described, above, and were tested in replicates at 1:50, 1:150, and 1:450 dilutions and the activity of each was calculated in U/ml.
Using the Chromogenix Coamatic Factor VIII (Chromogenix, cat#82258563) the activity of FVIII is assessed as follows. […] The color is then read spectrophotometrically at 405 nm The generated factor Xa and thus the intensity of color is proportional to the factor VIII activity in the sample. […]

[2] = test system: FVIII activity; experiment: Two-stage chromogenic FVIII activity assay of transient transfection cell culture supernatant; type: biochemical; settings: HEK293 cell culture supernatant, 5-day transient transfection
Protocol: Two FVIII-XTEN fusion proteins, FVIII-AE288 (F8X-40) and FVIII-AG288 (F8X-41), contain an AE288 XTEN or an […] XTEN, respectively, fused at the C-terminus of FVIII C2 domain. To determine if FVIII activity was retained after XTEN fusion, HEK293 cells were transfected separately with these two FVIII-XTEN fusion constructs by using polyethylenimine (PEI) in serum-free medium. At 3 or 5 days post-transfection, the cell culture supernatant was tested for FVIII activity by a two-stage chromogenic assay. Purified recombinant FVIII, calibrated against WHO international standard, was used to establish the standard curve in the chromogeinic assay. […] (Table 26).

[3] = Analytical size exclusion chromatography of XTEN fusion proteins; type: physicochemical; settings: for Apparent MW: SEC, calibrated with globular protein standards; for Apparent Molecular Weight Factor: apparent MW relative to actual MW; for RH: hydrodynamic radius from SEC
Protocol: Size exclusion chromatography analyses were performed on fusion proteins containing various therapeutic proteins and unstructured recombinant proteins of increasing length. […] Chromatogram profiles were monitored using OD214 nm and OD280 nm Column calibration for all assays were performed using a size exclusion calibration standard from BioRad; the markers include thyroglobulin (670 kDa), bovine gamma-globulin (158 kDa), chicken ovalbumin (44 kDa), equine myoglobuin (17 kDa) and vitamin B12 (1.35 kDa). […] Based on the SEC analyses for all constructs evaluated, including a […] composition, the apparent molecular weights, the apparent molecular weight factor (expressed as the ratio of apparent molecular weight to the calculated molecular weight) and the hydrodynamic radius (RH in nm) are shown in Table 16.

Row | Molecule | Specific Activity ([1]; activity (Chromogenix) per concentration (ELISA)) [IU/mg] | Activity ([1]; cell culture medium of transiently transfected Freestyle 293 cells, Chromogenix Coamatic Factor VIII assay) [IU/ml] | FVIII activity ([2]; Sample A) [IU/ml] | FVIII activity ([2]; Sample B) [IU/ml] | Apparent MW [3] [kDa] | Apparent Molecular Weight Factor [3] | RH [3] [nm]
1 | pBC0114: base construct expressing BDD FVIII, pcDNA4-FVIII_4-…-Myc-SPATG-His, lacking XTEN insertions (protein, Myc and His tags) MQIELSTCFFLCLLRFCFSATRRYYLGAVELSWDYMQSDLGELPVDARFPPRVPKSFPFNTSVVYKKTLFVEFTDHLFNIAKPRPPWMGLLGPTIQAEVYDTVVITLKNMASHPVSLHAVGVSYWKASEGAEYDDQTSQREKEDDKVFPGGSHTYVWQVLKENGPMASDPLCLTYSYLSHVDLVKDLNSGLIGALLVCREGSLAKEKTQTLHKFILLFAVFDEGKSWHSETKNSLMQDRDAASARAWPKMHTVNGYVNRSLPGLIGCHRKSVYWHVIGMGTTPEVHSIFLEGHTFLVRNHRQASLEISPITFLTAQTLLMDLGQFLLFCHISSHQHDGMEAYVKVDSCPEEPQLRMKNNEEAEDYDDDLTDSEMDVVRFDDDNSPSFIQI | 5000 | 3.0 |  |  |  |  | 
2 | pBC 0114 (protein) MQIELSTCFFLCLLRFCFSATRRYYLGAVELSWDYMQSDLGELPVDARFPPRVPKSFPFNTSVVYKKTLFVEFTDHLFNIAKPRPPWMGLLGPTIQAEVYDTVVITLKNMASHPVSLHAVGVSYWKASEGAEYDDQTSQREKEDDKVFPGGSHTYVWQVLKENGPMASDPLCLTYSYLSHVDLVKDLNSGLIGALLVCREGSLAKEKTQTLHKFILLFAVFDEGKSWHSETKNSLMQDRDAASARAWPKMHTVNGYVNRSLPGLIGCHRKSVYWHVIGMGTTPEVHSIFLEGHTFLVRNHRQASLEISPITFLTAQTLLMDLGQFLLFCHISSHQHDGMEAYVKVDSCPEEPQLRMKNNEEAEDYDDDLTDSEMDVVRFDDDNSPSFIQI |  |  | 6.68 | 7.61 |  |  | 
3 | AC404 (protein) AVFVTQEEAHGVLHRRRRANAFLEELRPGSLERECKEEQCSFEEAREIFKDAERTKLFWISYSDGDQCASSPCQNGGSCKDQLQSYICFCLPAFEGRNCETHKDDQLICVNENGGCEQYCSDHTGTKRSCRCHEGYSLLADGVSCTPTVEYPCGKIPILEKRNASKPQGRIVGGKVCPKGECPWQVLLLVNGAQLCGGTLINTIWVVSAAHCFDKIKNWRNLIAVLGEHDLSEHDGDEQSRRVAQVIIPSTYVPGTTNHDIALLRLHQPVVLTDHVVPLCLPERTFSERTLAFVRFSLVSGWGQLLDRGATALELMVLNVPRLMTQDCLQQSRKVGDSPNITEYMFCAGYSDGSKDSCKGDSGGPHATHYRGTWYLTGIVSWGQGCATVGHFGVYTRVSQYIEWLQKLMRSEPRPGVLLRAPFPGSPGSPAGSPTSTEEGTSESATPESGPGTSTEPSEGSAPGSPAGSPTSTEEGTSTEPSEGSAPGTSTEPSEGSAPGTSESATPESGPGSEPATSGSETPGSEPATSGSETPGSPAGSPTSTEEGTSESATPESGPGTSTEPSEGSAPGTSTEPSEGSAPGSPAGSPTSTEEGTSTEPSEGSAPGTSTEPSEGSAPGTSESATPESGPGTSTEPSEGSAPGTSESATPESGPGSEPATSGSETPGTSTEPSEGSAPGTSTEPSEGSAPGTSESATPESGPGTSESATPESGPGSPAGSPTSTEEGTSESATPESGPGSEPATSGSETPGTSESATPESGPGTSTEPSEGSAPGTSTEPSEGSAPGTSTEPSEGSAPGTSTEPSEGSAPGTSTEPSEGSAPGTSTEPSEGSAPGSPAGSPTSTEEGTSTEPSEGSAPGTSESATPESGPGSEPATSGSETPGTSESATPESGPGSEPATSGSETPGTSESATPESGPGTSTEPSEGSAPGTSESATPESGPGSPAGSPTSTEEGSPAGSPTSTEEGSPAGSPTSTEEGTSESATPESGPGTSTEPSEGSAPGTSESATPESGPGSEPATSGSETPGTSESATPESGPGSEPATSGSETPGTSESATPESGPGTSTEPSEGSAPGSPAGSPTSTEEGTSESATPESGPGSEPATSGSETPGTSESATPESGPGSPAGSPTSTEEGSPAGSPTSTEEGTSTEPSEGSAPGTSESATPESGPGTSESATPESGPGTSESATPESGPGSEPATSGSETPGSEPATSGSETPGSPAGSPTSTEEGTSTEPSEGSAPGTSTEPSEGSAPGSEPATSGSETPGTSESATPESGPGTSTEPSEGSAPGSSS |  |  |  |  | 1900 | 14.7 | 10.1
4 | AC398 (protein) AVFVTQEEAHGVLHRRRRANAFLEELRPGSLERECKEEQCSFEEAREIFKDAERTKLFWISYSDGDQCASSPCQNGGSCKDQLQSYICFCLPAFEGRNCETHKDDQLICVNENGGCEQYCSDHTGTKRSCRCHEGYSLLADGVSCTPTVEYPCGKIPILEKRNASKPQGRIVGGKVCPKGECPWQVLLLVNGAQLCGGTLINTIWVVSAAHCFDKIKNWRNLIAVLGEHDLSEHDGDEQSRRVAQVIIPSTYVPGTTNHDIALLRLHQPVVLTDHVVPLCLPERTFSERTLAFVRFSLVSGWGQLLDRGATALELMVLNVPRLMTQDCLQQSRKVGDSPNITEYMFCAGYSDGSKDSCKGDSGGPHATHYRGTWYLTGIVSWGQGCATVGHFGVYTRVSQYIEWLQKLMRSEPRPGVLLRAPFPGSPGTSESATPESGPGSEPATSGSETPGTSESATPESGPGSEPATSGSETPGTSESATPESGPGTSTEPSEGSAPGSPAGSPTSTEEGTSESATPESGPGSEPATSGSETPGTSESATPESGPGSPAGSPTSTEEGSPAGSPTSTEEGTSTEPSEGSAPGTSESATPESGPGTSESATPESGPGTSESATPESGPGSEPATSGSETPGSEPATSGSETPGSPAGSPTSTEEGTSTEPSEGSAPGTSTEPSEGSAPGSEPATSGSETPGTSESATPESGPGTSTEPSEGSAPGSSS |  |  |  |  | 650 | 8.5 | 8.2
